Experiment [1] has as its target T1, (H2N-KEFSELEQSGYYVCYPRGSNPEDA-OH) vCD3e #p3-BSA (conjugated to BSA).
T1 construct: also called control peptide #p3
T1 peptide: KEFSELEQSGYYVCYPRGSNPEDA
Kind of experiment: Luminex bead assay [Cont.]. As to the method: (§1) A set of experiments was performed to map the epitope recognized by the anti-CD3ε antibodies. In these experiments, the anti-CD3ε antibodies were assessed for binding to a collection of overlapping 15-mer peptides spanning amino acids 1-27 of human CD3ε protein using a Luminex bead assay. Control CD3 proteins, control peptides, or the test peptides were immobilized on Luminex beads and incubated with a panel of anti-CD3 antibodies. Binding of the anti-CD3 antibodies to the peptide/protein immobilized on the Luminex bead was detected by R-Phycoerythrin conjugated secondary antibody.
(§2) Recombinant CD3 proteins (human CD3d/e heterodimer and cynomolgus CD3-epsilon (Sinobiological)) and control peptides (#p1, #p2, and #p3) were conjugated to Luminex beads using standard EDC/Sulfo-NHS chemistry. The 15-mer test peptides were synthesized as biotinylated peptides at JPT Peptide Technologies Gmbh and were immobilized on streptavidin-conjugated Luminex beads that were made using standard EDC/Sulfo-NHS chemistry and streptavidin (Invitrogen Cat. No. 434301 lot 1626028A). The Luminex beads with immobilized peptides or reagents were incubated with 50 ul of a panel of anti-CD3 antibodies (1 ug/ml) for one hour at room temperature, washed two times, incubated with mixture of anti-human and anti-mouse IgG-RPE (Jackson Immunoresearch 109-116-097 and Southern Biotech 1030-09, respectively) for 30 mins at RT, washed three times, and analyzed in the Luminex instrument to assess the level of bound anti-CD3 antibodies.

Experiment [2] has as its target T2, B X NEEMGGITQTPYKVS (reading uncertain).
T2 construct: row 5 of the chart; also called biotinylated 15-mer, residues 4-18
T2 peptide: {Biotin-code X}-NEEMGGITQTPYKVS
Description: Luminex bead assay [Cont.]. As to the method: as §1, §2

The target of experiment [3] is T3, B X EEMGGITQTPYKVSI (reading uncertain).
T3 construct: row 6 of the chart; also called biotinylated 15-mer, residues 5-19
T3 peptide: {Biotin-code X}-EEMGGITQTPYKVSI
Description: Luminex bead assay [Cont.]. As to the method: as §1, §2

The target in experiment [4] is T4, B X MGGITQTPYKVSISG (reading uncertain).
T4 construct: row 8 of the chart; also called biotinylated 15-mer, residues 7-21
T4 peptide: {Biotin-code X}-MGGITQTPYKVSISG
Description: Luminex bead assay [Cont.]. How it is done:
as §1, §2

The target of experiment [5] is T5, B X ITQTPYKVSISGTTV (reading uncertain).
T5 construct: row 11 of the chart; also called biotinylated 15-mer, residues 10-24
T5 peptide: {Biotin-code X}-ITQTPYKVSISGTTV
Description: Luminex bead assay [Cont.]. As to the method:
as §1, §2

Experiment [6] has as its target T6, B X QDGAEEMGGITQTP (reading uncertain).
T6 construct: row 18 of the chart; 14 residues; also called alanine-scan peptide N4A
T6 peptide: {Biotin-code X}-QDGAEEMGGITQTP
Description: Luminex bead assay [Cont.]. How it is done:
as §1, §2

Experiment [7] concerns the target T7, BSA alone (bovine, UniProt P02769).
T7 construct: carrier protein without peptide
Kind of experiment: Luminex bead assay [Cont.]. How it is done:
as §1, §2

Experiment [8] concerns the target T8, cynomolgus CD3-epsilon (cynomolgus, UniProt Q95LI5 22-198).
T8 construct: whole, on cells; also called CD3ε on cynomolgus T cells / PBMCs
Kind of experiment: flow cytometry on cynomolgus T cells. As to the method: In these experiments, human or cynomolgus T cells were incubated with an anti-CD3ε antibody and binding was assessed by flow cytometry.
Briefly, donor T cells from either human or cynomolgus donors were resuspended in FACS buffer containing 0.1% sodium azide and aliquoted in 100 μL volumes. For incubation, 100 μL aliquots of donor T cells were mixed with 50 μL of antibodies diluted in FACS buffer containing 0.1% sodium azide. The cells were then washed twice with FACS buffer containing sodium azide. The bound antibody was detected by incubating cells for 60 minutes with a 1:200 dilution of SAV-RPE (Invitrogen Cat No. SA10044, Lot. 1542820A) or 1:100 dilution of goat-anti-Mouse Fcγ-RPE (Jackson Cat. No. 115-116-071, Lot. 108668, diluted in 0.2% goat serum). The cells were washed, fixed, and analyzed with an Accuri Flow Cytometer.
Treatment with OKT3, SP34-2, and diL2K antibodies were used as positive controls for T cell binding. […] Treatment with OKT3, SP34-2, and diL2K antibodies were used as controls for T cell binding with only SP34-2 binding to cynomolgus T cells, as expected.
(In general: A flow cytometer gives signals particle by particle.)

What is called EC50 (read off the curve) is the concentration giving half of the maximal effect.

No end group written: not given here. *: point of attachment. Biotin = O=C1N[C@H]2[C@H](CS[C@H]2CCCCC(=O)*)N1; code X = not defined here

T8 sequence (Q95LI5 22-198): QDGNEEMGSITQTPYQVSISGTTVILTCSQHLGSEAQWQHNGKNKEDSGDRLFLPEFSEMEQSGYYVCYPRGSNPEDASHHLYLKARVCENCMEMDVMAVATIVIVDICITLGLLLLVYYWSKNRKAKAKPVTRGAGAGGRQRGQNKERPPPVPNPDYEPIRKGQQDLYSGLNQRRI
T7 sequence (P02769 25-607 limits assumed): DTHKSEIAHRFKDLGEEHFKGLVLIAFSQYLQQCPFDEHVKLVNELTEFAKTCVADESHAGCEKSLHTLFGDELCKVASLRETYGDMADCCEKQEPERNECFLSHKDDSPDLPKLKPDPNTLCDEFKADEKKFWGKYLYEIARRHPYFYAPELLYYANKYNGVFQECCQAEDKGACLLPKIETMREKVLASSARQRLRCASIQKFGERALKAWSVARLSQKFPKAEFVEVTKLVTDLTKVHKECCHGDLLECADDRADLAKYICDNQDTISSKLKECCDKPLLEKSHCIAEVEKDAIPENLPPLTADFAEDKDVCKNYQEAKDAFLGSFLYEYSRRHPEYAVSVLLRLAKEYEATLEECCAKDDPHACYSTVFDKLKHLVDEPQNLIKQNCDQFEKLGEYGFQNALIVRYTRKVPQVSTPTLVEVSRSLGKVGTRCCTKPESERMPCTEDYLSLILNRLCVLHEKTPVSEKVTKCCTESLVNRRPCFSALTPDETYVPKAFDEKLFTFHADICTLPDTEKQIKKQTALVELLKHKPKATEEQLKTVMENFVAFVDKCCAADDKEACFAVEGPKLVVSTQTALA

B1: 6d59 (antibody, V domains shown)
VH: QVHLVESGGGVVQPGRSLRLSCAASGFKFRSYGMHWVRQAPGKGLEWVAIIWYDGSKRYYADSVKGRFTISRDNSKNTLYLQMSSLRAEDTAVYYCARDLITGTTDYWGQGTLVTVSS
VL: DVVMTQSPLSLPVTLGQPASISCRSSRSLVYSDGNTHLIWFQQRPGQSPRRLIYRVSNRVSGVPDRFSGSGSGTDFTLKISRVEAEDVGVYYCLQGAHWPYTFGQGTKLEIKR
notes: also called 6d59.1; VCD3-6d59.1
Consider B1, for which the binding result in experiment [1], in experiment [2], in experiment [3], in experiment [4], in experiment [5] and in experiment [6] was “no binding (tested: 1 ug/ml)” throughout. For the same molecule, the binding result in experiment [7] was “no binding (tested: 1 ug/ml)”. The “EC50 (read off the curve)” value in experiment [8] is roughly 0.07 nM.
